Experimental data reported in the supplement of paper PMC9112550, “Optimization of the antimicrobial peptide Bac7 by deep mutational scanning” (BMC Biology, 2022).

System: Escherichia coli TOP10
Assay: shrunken log2 fold change of peptide-encoding DNA abundance (4.5 h post-induction vs induction); higher = less antimicrobial activity (less host growth inhibition)
Conditions: time post-induction: 4.5 h; library: site-saturation at positions 5, 18, 19, 20
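Further: peptides expressed intracellularly from a pBAD plasmid library in pooled LB shake-flask culture, induced with 0.3% L-arabinose, DNA abundance read by NGS, three biological replicates, DESeq2 with apeglm shrinkage.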

Sequence | shrunken log2 fold change
RRIRPRPPRLPRPRPRPREGPRP | 0.891
RRIRRRPPRLPRPRPRPVWYPRP | 0.18
RRIRDRPPRLPRPRPRPLKTPRP | 0.333
RRIRNRPPRLPRPRPRPYQPPRP | -0.31
RRIRNRPPRLPRPRPRPYGAPRP | -0.397
RRIRMRPPRLPRPRPRPFSAPRP | 0.138
RRIRCRPPRLPRPRPRPETTPRP | 0.394
RRIRERPPRLPRPRPRPDFWPRP | 0.214
RRIRSRPPRLPRPRPRPHAGPRP | 0.428
RRIRDRPPRLPRPRPRPDWHPRP | 0.0912
RRIRMRPPRLPRPRPRPLTKPRP | 0.212
RRIRKRPPRLPRPRPRPMPSPRP | 0.0546
RRIRNRPPRLPRPRPRPEFDPRP | 0.0248
RRIRARPPRLPRPRPRPHWNPRP | -0.0187
RRIRIRPPRLPRPRPRPHAWPRP | 0.0947
RRIRVRPPRLPRPRPRPLFMPRP | -0.663
RRIRERPPRLPRPRPRPANWPRP | 0.173
RRIRERPPRLPRPRPRPEVMPRP | 0.378
RRIRGRPPRLPRPRPRPHPGPRP | 0.421
RRIRHRPPRLPRPRPRPKKNPRP | -0.14
RRIRTRPPRLPRPRPRPNNCPRP | -0.0675
RRIRRRPPRLPRPRPRPFRAPRP | 0.251
RRIRYRPPRLPRPRPRPIEVPRP | -0.217
RRIRFRPPRLPRPRPRPNEIPRP | 0.232
RRIRNRPPRLPRPRPRPTTMPRP | -0.0975

Sequence | shrunken log2 fold change
RRIRMRPPRLPRPRPRPAVFPRP | 0.383
RRIRSRPPRLPRPRPRPDAHPRP | 0.0464
RRIRARPPRLPRPRPRPLKRPRP | 0.37
RRIRSRPPRLPRPRPRPIRLPRP | -0.27
RRIRWRPPRLPRPRPRPWRVPRP | -0.245
RRIRQRPPRLPRPRPRPHHKPRP | -0.205
RRIRQRPPRLPRPRPRPSDQPRP | 0.152
RRIRLRPPRLPRPRPRPTWYPRP | -0.221
RRIRSRPPRLPRPRPRPWIHPRP | -0.338
RRIRVRPPRLPRPRPRPLNIPRP | -0.0458
RRIRPRPPRLPRPRPRPYITPRP | -0.739
RRIRGRPPRLPRPRPRPGCSPRP | 0.867
RRIRRRPPRLPRPRPRPLEGPRP | 0.0703
RRIRQRPPRLPRPRPRPAVDPRP | 0.963
RRIRWRPPRLPRPRPRPMKAPRP | 0.294
RRIRFRPPRLPRPRPRPQARPRP | 0.148
RRIRPRPPRLPRPRPRPLSTPRP | -0.0907
RRIRSRPPRLPRPRPRPEDKPRP | -0.00968
RRIRHRPPRLPRPRPRPWQLPRP | -0.016
RRIRPRPPRLPRPRPRPKIFPRP | -0.0976
RRIRNRPPRLPRPRPRPTICPRP | -0.119
RRIRSRPPRLPRPRPRPECKPRP | 0.275
RRIRWRPPRLPRPRPRPQNSPRP | 0.0838
RRIRYRPPRLPRPRPRPRAMPRP | -0.0749
RRIRPRPPRLPRPRPRPEHHPRP | -0.0616

Sequence | shrunken log2 fold change
RRIRMRPPRLPRPRPRPMIVPRP | -0.101
RRIRCRPPRLPRPRPRPYHPPRP | -0.539
RRIRQRPPRLPRPRPRPVHSPRP | -0.0049
RRIRRRPPRLPRPRPRPCCKPRP | -0.0824
RRIRIRPPRLPRPRPRPQYNPRP | -1.12
RRIRVRPPRLPRPRPRPPTEPRP | 0.273
RRIRLRPPRLPRPRPRPWCLPRP | -0.317
RRIRPRPPRLPRPRPRPGGKPRP | 0.12
RRIRWRPPRLPRPRPRPELNPRP | 0.259
RRIRHRPPRLPRPRPRPPILPRP | -0.0767
RRIRDRPPRLPRPRPRPSIRPRP | -0.103
RRIRERPPRLPRPRPRPGQCPRP | 0.0236
RRIRMRPPRLPRPRPRPYQHPRP | 0.0551
RRIRGRPPRLPRPRPRPSESPRP | 0.504
RRIRDRPPRLPRPRPRPFTTPRP | -0.132
RRIRFRPPRLPRPRPRPILQPRP | -0.0746
RRIRHRPPRLPRPRPRPDRLPRP | -0.0627
RRIRARPPRLPRPRPRPTQAPRP | 1.06
RRIRFRPPRLPRPRPRPVEAPRP | -0.103
RRIRCRPPRLPRPRPRPPQLPRP | 0.329
RRIRRRPPRLPRPRPRPMWDPRP | 0.164
RRIRKRPPRLPRPRPRPCKAPRP | 0.0525
RRIRHRPPRLPRPRPRPSHGPRP | -0.137
RRIRSRPPRLPRPRPRPRSAPRP | 0.392
RRIRRRPPRLPRPRPRPLCIPRP | -0.119

Sequence | shrunken log2 fold change
RRIRWRPPRLPRPRPRPRTTPRP | 0.755
RRIRSRPPRLPRPRPRPVHEPRP | -0.185
RRIRMRPPRLPRPRPRPYTHPRP | -0.174
RRIRSRPPRLPRPRPRPLCFPRP | -0.0528
RRIRSRPPRLPRPRPRPFAPPRP | 0.314
RRIRLRPPRLPRPRPRPGVQPRP | 0.0642
RRIRRRPPRLPRPRPRPTQEPRP | 0.212
RRIRIRPPRLPRPRPRPWHYPRP | -0.111
RRIRSRPPRLPRPRPRPTEYPRP | -0.206
RRIRQRPPRLPRPRPRPPFFPRP | 0.249
RRIRQRPPRLPRPRPRPVLPPRP | 0.0127
RRIRRRPPRLPRPRPRPGKRPRP | 0.363
RRIRARPPRLPRPRPRPEAGPRP | 1.5
RRIRARPPRLPRPRPRPEMLPRP | 0.234
RRIRLRPPRLPRPRPRPGHQPRP | 0.122
RRIRKRPPRLPRPRPRPGNNPRP | -0.107
RRIRSRPPRLPRPRPRPCYIPRP | -0.582
RRIRDRPPRLPRPRPRPKNYPRP | -0.303
RRIRWRPPRLPRPRPRPPDIPRP | 0.238
RRIRHRPPRLPRPRPRPWHWPRP | -0.135
RRIRMRPPRLPRPRPRPACKPRP | 0.484
RRIRHRPPRLPRPRPRPDANPRP | 0.152
RRIRERPPRLPRPRPRPQFKPRP | -0.444
RRIRCRPPRLPRPRPRPTDSPRP | -0.118
RRIRRRPPRLPRPRPRPANDPRP | 0.275

Sequence | shrunken log2 fold change
RRIRERPPRLPRPRPRPFKYPRP | -0.0322
RRIRSRPPRLPRPRPRPCDSPRP | -0.207
RRIRERPPRLPRPRPRPLQMPRP | -0.0246
RRIRVRPPRLPRPRPRPKVVPRP | 0.174
RRIRKRPPRLPRPRPRPSLQPRP | 0.447
RRIRMRPPRLPRPRPRPVYLPRP | -0.683
RRIRQRPPRLPRPRPRPYTLPRP | 0.0232
RRIRIRPPRLPRPRPRPAGCPRP | -0.0691
RRIRWRPPRLPRPRPRPQAGPRP | 0.335
RRIRGRPPRLPRPRPRPHCMPRP | -0.207
RRIRYRPPRLPRPRPRPAIHPRP | -0.406
RRIRFRPPRLPRPRPRPQRMPRP | -0.29
RRIRWRPPRLPRPRPRPIDYPRP | -0.235
RRIRPRPPRLPRPRPRPRLQPRP | 0.176
RRIRQRPPRLPRPRPRPLKHPRP | -0.589
RRIRQRPPRLPRPRPRPPNHPRP | -0.157
RRIRGRPPRLPRPRPRPPYVPRP | -0.21
RRIRFRPPRLPRPRPRPDFFPRP | -0.027
RRIRQRPPRLPRPRPRPSIEPRP | -0.373
RRIRGRPPRLPRPRPRPQTVPRP | 0.19
RRIRTRPPRLPRPRPRPGAVPRP | 0.104
RRIRDRPPRLPRPRPRPTLWPRP | 2.36
RRIRYRPPRLPRPRPRPETDPRP | -0.021
RRIRRRPPRLPRPRPRPWVIPRP | -0.125
RRIRRRPPRLPRPRPRPPTCPRP | 0.474
